Results on 3 molecules are retold here after paper PMC9557913 (Molecular cell, 2022).

The data set “SEC” deals with the molecule itself. Put plainly: SEC. (In gel filtration, larger molecules generally elute earlier.)
For another data set, the target named is T1, MCU, Q8NE86.
T1 chain: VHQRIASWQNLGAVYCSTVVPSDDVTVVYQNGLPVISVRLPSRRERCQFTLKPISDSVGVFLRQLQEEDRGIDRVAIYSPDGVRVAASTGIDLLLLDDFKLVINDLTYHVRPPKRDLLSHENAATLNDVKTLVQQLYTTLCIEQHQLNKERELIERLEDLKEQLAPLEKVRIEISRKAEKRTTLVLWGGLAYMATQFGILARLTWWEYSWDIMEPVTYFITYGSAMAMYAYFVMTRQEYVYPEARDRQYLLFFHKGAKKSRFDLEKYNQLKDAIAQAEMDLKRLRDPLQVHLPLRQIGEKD
Put plainly: co-IP. The conditions noted are these: remark: other sources report otherwise.

B1: purified human MICU2 (MICU2-2ND) (natural protein, UniProt Q8IYU8 23-434, looked up)
chain: AVSRQAVRSPGPLAAAVAGAALAGAGAAWHHSRVSVAARDGSFTVSAQKNVEHGIIYIGKPSLRKQRFMQFSSLEHEGEYYMTPRDFLFSVMFEQMERKTSVKKLTKKDIEDTLSGIQTAGCGSTFFRDLGDKGLISYTEYLFLLTILTKPHSGFHVAFKMLDTDGNEMIEKREFFKLQKIISKQDDLMTVKTNETGYQEAIVKEPEINTTLQMRFFGKRGQRKLHYKEFRRFMENLQTEIQEMEFLQFSKGLSFMRKEDFAEWLLFFTNTENKDIYWKNVREKLSAGESISLDEFKSFCHFTTHLEDFAIAMQMFSLAHRPVRLAEFKRAVKVATGQELSNNILDTVFKIFDLDGDECLSHEEFLGVLKNRMHRGLWVPQHQSIQEYWKCVKKESIKGVKEVWKQAGKGLF
On to B1, for which the “stoichiometry N” value in the data set “SEC” is 2.

B2: disulfide-connected MICU1-MICU1 homodimer (MICU1-1D), Q9BPX6 34-476 (complex)
chain: MMVAFLGASAVTASTGLLWKRAHAESPPCVDNLKSDIGDKGKNKDEGDVCNHEKKTADLAPHPEEKKKKRSGFRDRKVMEYENRIRAYSTPDKIFRYFATLKVISEPGEAEVFMTPEDFVRSITPNEKQPEHLGLDQYIIKRFDGKKISQEREKFADEGSIFYTLGECGLISFSDYIFLTTVLSTPQRNFEIAFKMFDLNGDGEVDMEEFEQVQSIIRSQTSMGMRHRDRPTTGNTLKSGLCSALTTYFFGADLKGKLTIKNFLEFQRKLQHDVLKLEFERHDPVDGRITERQFGGMLLAYSGVQSKKLTAMQRQLKKHFKEGKGLTFQEVENFFTFLKNINDVDTALSFYHMAGASLDKVTMQQVARTVAKVELSDHVCDVVFALFDCDGNGELSNKEFVSIMKQRLMRGLEKPKDMGFTRLMQAMWKCAQETAWDFALPKQ
modifications: here or on the partner: intersubunit disulfide through C463
In the case of B2, in the data set with MCU, Q8NE86, the fold co-precipitated with MCU, against MICU1-2D stood at 2 fold.

B3: purified MBP-fused human MICU1 (MICU1-1ND) (natural protein, UniProt Q9BPX6 34-476, looked up)
chain: MMVAFLGASAVTASTGLLWKRAHAESPPCVDNLKSDIGDKGKNKDEGDVCNHEKKTADLAPHPEEKKKKRSGFRDRKVMEYENRIRAYSTPDKIFRYFATLKVISEPGEAEVFMTPEDFVRSITPNEKQPEHLGLDQYIIKRFDGKKISQEREKFADEGSIFYTLGECGLISFSDYIFLTTVLSTPQRNFEIAFKMFDLNGDGEVDMEEFEQVQSIIRSQTSMGMRHRDRPTTGNTLKSGLCSALTTYFFGADLKGKLTIKNFLEFQRKLQHDVLKLEFERHDPVDGRITERQFGGMLLAYSGVQSKKLTAMQRQLKKHFKEGKGLTFQEVENFFTFLKNINDVDTALSFYHMAGASLDKVTMQQVARTVAKVELSDHVCDVVFALFDCDGNGELSNKEFVSIMKQRLMRGLEKPKDMGFTRLMQAMWKCAQETAWDFALPKQ
Consider B3, for which, in “SEC”, the “stoichiometry N” value came to 2.

One may read the stoichiometry N as a count of units in the complex or per binding partner.
